Here are results for four molecules from publication PMC3084675 (Molecular Biology of the Cell, 2011).

Test [1] deals with FAK (focal adhesion kinase) (UniProt O35346). The test is described as follows: S-bead precipitation of SFB-FAK, Dyn2 blot. The note with it: reference: wild-type Dyn2; sites Y231,Y597.
Test [2] deals with FAK (focal adhesion kinase) FERM domain (UniProt O35346). The test is described as follows: GST-FERM pull-down of His-Dyn2. The note with it: reference: His-Dyn2 wild type from TKB1 (phosphorylated); sites Y231,Y597.
In test [3] the target is SFB-FAK (S protein, Flag, and streptavidin binding peptide triple tagged FAK) (rat, UniProt O35346 1-1055). The test is described as follows: co-IP.
Test [4] addresses T1, GST-FERM (FERM domain of FAK) (rat, UniProt O35346 35-355).
T1 sequence (looked up): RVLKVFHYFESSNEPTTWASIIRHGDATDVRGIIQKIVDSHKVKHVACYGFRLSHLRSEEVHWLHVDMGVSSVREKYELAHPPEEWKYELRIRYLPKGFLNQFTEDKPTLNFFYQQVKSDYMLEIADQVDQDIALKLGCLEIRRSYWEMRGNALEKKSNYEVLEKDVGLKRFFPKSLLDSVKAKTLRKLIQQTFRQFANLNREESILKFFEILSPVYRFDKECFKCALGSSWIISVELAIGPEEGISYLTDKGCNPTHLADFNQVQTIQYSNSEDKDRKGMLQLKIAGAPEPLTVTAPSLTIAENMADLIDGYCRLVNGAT
The test is described as follows: pull-down.

SFB-FAK (S protein, Flag, and streptavidin binding peptide triple tagged FAK), sequence (O35346 whole entry, the tested form may be a part): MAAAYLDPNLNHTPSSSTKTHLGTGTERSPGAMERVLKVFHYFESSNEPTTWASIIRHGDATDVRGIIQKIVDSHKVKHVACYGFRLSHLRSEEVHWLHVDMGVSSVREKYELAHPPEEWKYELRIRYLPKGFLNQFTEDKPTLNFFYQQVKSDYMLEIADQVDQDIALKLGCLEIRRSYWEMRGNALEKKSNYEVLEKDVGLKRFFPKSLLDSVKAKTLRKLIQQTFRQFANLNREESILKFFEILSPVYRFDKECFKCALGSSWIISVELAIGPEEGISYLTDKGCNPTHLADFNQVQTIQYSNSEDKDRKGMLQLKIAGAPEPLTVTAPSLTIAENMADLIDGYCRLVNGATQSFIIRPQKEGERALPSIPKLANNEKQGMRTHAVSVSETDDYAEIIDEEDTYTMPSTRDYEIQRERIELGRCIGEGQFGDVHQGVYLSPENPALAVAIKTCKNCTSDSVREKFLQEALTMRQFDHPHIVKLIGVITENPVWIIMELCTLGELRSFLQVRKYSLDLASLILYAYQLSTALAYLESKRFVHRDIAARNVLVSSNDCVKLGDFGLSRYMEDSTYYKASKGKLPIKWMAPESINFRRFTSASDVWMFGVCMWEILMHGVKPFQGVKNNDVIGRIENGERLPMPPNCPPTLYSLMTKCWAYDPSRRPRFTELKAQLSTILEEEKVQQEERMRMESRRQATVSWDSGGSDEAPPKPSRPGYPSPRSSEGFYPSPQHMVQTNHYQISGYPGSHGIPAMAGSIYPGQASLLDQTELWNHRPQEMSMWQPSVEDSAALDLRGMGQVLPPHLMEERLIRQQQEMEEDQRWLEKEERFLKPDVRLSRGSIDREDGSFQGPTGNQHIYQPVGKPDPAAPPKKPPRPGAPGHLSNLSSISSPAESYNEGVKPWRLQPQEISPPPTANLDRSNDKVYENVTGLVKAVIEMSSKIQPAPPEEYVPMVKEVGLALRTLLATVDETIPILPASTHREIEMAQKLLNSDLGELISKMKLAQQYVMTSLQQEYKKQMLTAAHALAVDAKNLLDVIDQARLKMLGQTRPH

Take “Dyn2 (dynamin-2) (from UniProt P39052) Dyn2 Y231F/Y597F (YF)”: in test [1], the fold change result is “weaker; reference 3.2 ± 0.6-fold”.

With “Dyn2 (dynamin-2) (from UniProt P39052) His-Dyn2 Y231F/Y597F from TKB1”, in test [2], the fold change entry is listed as “weaker; reference threefold”.

B1: Dyn2 WT (dynamin-2, wild type), expressed in cells (natural protein)
chain: MGNRGMEELIPLVNKLQDAFSSIGQSCHLDLPQIAVVGGQSAGKSSVLENFVGRDFLPRGSGIVTRRPLILQLIFSKTEYAEFLHCKSKKFTDFDEVRQEIEAETDRVTGTNKGISPVPINLRVYSPHVLNLTLIDLPGITKVPVGDQPPDIEYQIKDMILQFISRESSLILAVTPANMDLANSDALKLAKEVDPQGLRTIGVITKLDLMDEGTDARDVLENKLLPLRRGYIGVVNRSQKDIEGRKDIRAALAAERKFFLSHPAYRHMADRMGTPHLQKTLNQQLTNHIRESLPTLRSKLQSQLLSLEKEVEEYKNFRPDDPTRKTKALLQMVQQFGVDFEKRIEGSGDQVDTLELSGGARINRIFHERFPFELVKMEFDEKDLRREISYAIKNIHGVRTGLFTPDLAFEAIVKKQVVKLKEPCLKCVDLVIQELISTVRQCTSKLSSYPRLREETERIVTTYIREREGRTKDQILLLIDIEQSYINTNHEDFIGFANAQQRSTQLNKKRAIPNQGEILVIRRGWLTINNISLMKGGSKEYWFVLTAESLSWYKDEEEKEKKYMLPLDNLKIRDVEKGFMSNKHVFAIFNTEQRNVYKDLRQIELACDSQEDVDSWKASFLRAGVYPEKDQAENEDGAQENTFSMDPQLERQVETIRNLVDSYVAIINKSIRDLMPKTIMHLMINNTKAFIHHELLAYLYSSADQSSLMEESAEQAQRRDDMLRMYHALKEALNIIGDISTSTVSTPVPPPVDDTWLQNTSSHSPTPQRRPVSSVHPPGRPPAVRGPTPGPPLIPMPVGATSSFSAPPIPSRPGPQNVFANNDPFSAPPQIPSRPARIPPGIPPGVPSRRAPAAPSRPTIIRPAEPSLLD
In the case of B1, the “fold co-precipitated relative to Dyn2 YF” value in test [3] was 3.2 ± 0.6 fold.

B2: His-Dyn2 WT purified from TKB1 E. coli (pDyn2 protein) (natural protein)
chain: MGNRGMEELIPLVNKLQDAFSSIGQSCHLDLPQIAVVGGQSAGKSSVLENFVGRDFLPRGSGIVTRRPLILQLIFSKTEYAEFLHCKSKKFTDFDEVRQEIEAETDRVTGTNKGISPVPINLRVYSPHVLNLTLIDLPGITKVPVGDQPPDIEYQIKDMILQFISRESSLILAVTPANMDLANSDALKLAKEVDPQGLRTIGVITKLDLMDEGTDARDVLENKLLPLRRGYIGVVNRSQKDIEGRKDIRAALAAERKFFLSHPAYRHMADRMGTPHLQKTLNQQLTNHIRESLPTLRSKLQSQLLSLEKEVEEYKNFRPDDPTRKTKALLQMVQQFGVDFEKRIEGSGDQVDTLELSGGARINRIFHERFPFELVKMEFDEKDLRREISYAIKNIHGVRTGLFTPDLAFEAIVKKQVVKLKEPCLKCVDLVIQELISTVRQCTSKLSSYPRLREETERIVTTYIREREGRTKDQILLLIDIEQSYINTNHEDFIGFANAQQRSTQLNKKRAIPNQGEILVIRRGWLTINNISLMKGGSKEYWFVLTAESLSWYKDEEEKEKKYMLPLDNLKIRDVEKGFMSNKHVFAIFNTEQRNVYKDLRQIELACDSQEDVDSWKASFLRAGVYPEKDQAENEDGAQENTFSMDPQLERQVETIRNLVDSYVAIINKSIRDLMPKTIMHLMINNTKAFIHHELLAYLYSSADQSSLMEESAEQAQRRDDMLRMYHALKEALNIIGDISTSTVSTPVPPPVDDTWLQNTSSHSPTPQRRPVSSVHPPGRPPAVRGPTPGPPLIPMPVGATSSFSAPPIPSRPGPQNVFANNDPFSAPPQIPSRPARIPPGIPPGVPSRRAPAAPSRPTIIRPAEPSLLD
modifications: tyrosine-phosphorylated: recognised by the 4G10 and pDyn2 (pTyr-231) antibodies
Regarding B2, the “fold association relative to Dyn2 YF” value in test [4] is 3 fold.
